According to a protein production outcome set (Wang et al. 2014):

Assay: label from the status in PepcDB records

Sequence	protein production
MTIAILPARLANQIAAGEVVERPASVIKELIENSLDAGATSIHIDVDKGGIKKIKITDNGHGIVKEELTLALSRHATSKIKSLNDLEAIGSLGFRGEALASISSVARLTLTSKPQSQATAWQAVAEGRDMSVNIKPAAHPDGTSIEVLDLFFNTPARRKFLRTEKTEFNHIDEVVRRIALAHFEVSFSLTHNGNTVRQYRMASTHAQCIKRVAMVCGPKFIEHAVEVDCPHDNMTLSGWLAKPSFSRSQNDLCYSYVNGRMMRDKLINHAIRQAYADLLPPDTYPAFVLFLQLDHREVDVNVHPSKHEVRFHQSRYVHDFIYSVCHKALTSALAGEELFTTADSDLALVPEQSYSSLGANDRQGSHSSNTPTLNYPSADYIRPLQHVNDASNSQSTSSYSGYGQQHKTNAISKIAASNYQALMTPDKGSSAQVQNTSGSDQASAQKHETTTLQNSTDQSAFLSVHQPGYALYKTENGVRVLSLFKLAKSTYGKLVEQSWQNKTEQSDCPVECLVSQPLLLPVILSLSEQQLSFVLAEQEILSNAGIVFIQQHKNKIQIRQFPALLREQDVSNALIIIIEELIEKRSFTEGEALCETNLHQSIGLAMVLAEYDETQADILLRLTKKLFHEQLSQQLLLNSIPLDLTSHIKTLF	failed
MYRNDPILPTFALILAAGLFYAAYLDGRHIARLLGHVPEELSVGQIGLMAFGAVLLLYGLMGLVSYWLEGIELRPGRHFPTPSTAPVAAGVILVLLLTALSGFFVRLLVYSAQTGHNPTWLQGLIFGSISLVVAALFGIYRRFFGREEVITEEEKSEFPW	failed
MIRKLMICIAVLVGFCPMAWGTVDDVPNPKTYDADNWVSDPDHILDSETKNKINDILQQLEDSLTIEVAVVALNSIGEEEPHEFAVTLFNLWGVGKAKDDNGLLILLTRDIRDITFKTGYGLEGVLPDAICKRIQMETMVPHLRENDWNTGMLEGVKAVAAVLYGSDYQAAPPEAWIKKFRRTTPSLVFIVFALMLILINWLVWKSAVHRMTPKDEGTEAALALLATRNPFTARTLLGLCWLVPVWPAMLGIACWYFGIQKQKTLRRSRTCPKCNRETLREIPLHELIKDTKRLTESERKETELKTAYIRIYRCSACSEEVKIRIPLEKDGYECCPSCGHMTLHKEEKYRTIIKATTSSEGLMEARHRCMYCDAEYMVGYTIPKINPSSRRSGGSGGGGGGSFGGGSSGGGGSSSRF	failed
MHNDQEISDANRDWWDSDAQRYHNDHAAYLNGFHWCPEMLPEREAHLLGDISGLNVLEIGCGSAPCSRWLFDNYDAFVTGFDLSMGMLRHSPTDVPLTQADAVNLPYKDSSFDIAFSAFGAFPFIENLGPVLKDIARCLKPHGKLVFSTNHPMRWIFPDDPTEIGLCAELSYFDRSYTERDKNGKITYAEFHRTMGDWIELLNASGFIIDRLIEPEWPTNLTETWGQWSPLRGRIFPGTAIFVTHCRLEHHHHHH	failed
MFEAARFGDEISHTSALGGFLIGAALGIALVATVAIATFTCGFGVALLAGLAAGIGGSLLTAAGEAIGSMFSSPSGTITTASPNVFINSRKAARVEKSIGACDKHPGPVQIAEGSTNVFINSVAAARKGDKLTCGATISGGSDNVIIGGGTYRYLPVDDEVPEWLRTTVDVLMAIAGAAGGIAQLIKAGTQAGMKAVMPCALKFTAGFVAGEVASRYVVEPVARKAIGGLVGNPVDLTTGRKLIPDEIDFSLPGLMPIEWSRFYASDLTVDSVLGRGWVLPWEQSLRRQGAFIYLTDNQGREVPFVTLQPGQRIYNPHEQVYLVCTEGGHYILQTLDNLFFYFGEVPDTNTEVPLQRIENVLGHFLHFTRTPDGTLTDISATGGTRVHLHYDNPLGRLTDIKRVVNNEAVETLTQYRYDEHGQLSAVINRNGDTVRSFSYADGLMVTHSNALGLGCHYRWQTLGDKPRVVEHWTSDGEHYHFRYDLDSRTSWATDVLGRELEVQYNADHRVVASRDYGGERYAIELDEHGNMVGLTLPDGNRLQFKYDEFSRLLEETDPLGRKTQYEYHHLTTLVTQVSYPDGSTWRARFDDKGNLLAEFDALGQMTEYLNSDDGLPHTIIDATYKSKYLWWNTLAQVERYQDCSGKSTYYRYDERQHLVAVTDALNQTTTLARKPDGEVLRISHPDGTTESFTYNVYGQVLSHTDGKGQTTRLMRTARGLPSSRQDAKGQRVRYEYDKAMRLTALVNENNATYSFAYDASDRLSEEVRVDNLTRRFSYDVGGHLTRLDEIGYGENAERPERHTLFERDAIGRLIAKLNSDAQQRFTYDDGDRLLSIERQPTGIGKQLGITEEKLEYAYDLLGRLTKEISPDGTLGYEYDPLSNLTTLTLPDGRKVNHLYYGSGHLHQLNLDGQVISDMERDDLHREVYRTQGKLTSCFGYDAMGRKAWQFASTLPADKLSQVHNTGINTSLLVEHAYNPIHRRYQYDPAGELVRTLDKLRGEIKYEYEANGQLRSRDTGSLIGSEEFRYDPAANRLDFNARQFDKVKDNRIKQWRDQEYRYDPWGNLIEKRSGHSKLQHFSYDCENRLVRAETLVNGKLESQGEYRYDSLGRRIAKQAEINGEVEQKRFLWQGLRMLREETPGQSILYLYEPGSYAPLARVDQVEGEGQKVYYFHTDQIGTPLELTDSEGEIVWQATYRSWGTIETLSIKEVDQNLRFQGQYFDAETGLHYNTFRYYYSEVGRYVTQDPIGLDGGLNLYRYGQNPAGWIDPWGWECWSTARKNYWKAEAKAPTRAYSPTNLVRMAEGKAPKMTVEVISRKTDKISIREYALELHHNDIPQRVGGAGVHDSSNLLALTPWEHEAVDQFRHVGSDLIRVIKGVDVW	failed
MKEKENIQKIIIAMIQTVVVYFSASLTLTLITPNFKSNKDLLFVLLIHYIVFYLSDFYRDFWSRGYLEEFKMVLKYSFYYIFISSSLFFIFKNSFTTTRLSFFTFIAMNSILLYLLNSFLKYYRKYSYAKFSRDTKVVLITNKDSLSKMTFRNKYDHNYIAVCILDSSEKDCYDLKHNSLRIINKDALTSELTCLTVDQAFINIPIELFGKYQIQDIINDIEAMGVIVNVNVEALSFDNIGEKRIQTFEGYSVITYSMKFYKYSHLIAKRFLDITGAIIGLLICGIVAIFLVPQIRKDGGPAIFSQNRVGRNGRIFRFYKFRSMRVDAEQIKKDLLVHNQMTGLMFKLDDDPRITKIGKFIRKTSIDELPQFYNVLKGDMSLVGTRPPTVDEYEKYNSTQKRRLSFKPGITGLWQISGRNNITDFDEIVKLDVQYINEWSIWSDIKIILLTLKVVLLGTGAK	failed
MDINMKKHKTIQFIVAALFIASACTDDRDNLMVNDQIGLLHSTYTETEIFRGMDTPYQLFVIKSGKGKQETEVSISVDETVLQSYNTDNGTSIQLLPSDCYTILQPALRLNDSDYRKAFDIKWNADRLSDLLSTGKEYGLPIQMSVVQNFISADDERLKTIIVPTIKEPYLQMDVPGMSPVTDFMPTFGDLNERELFVKIRTNYSNDEDISFQIEVDPQLVIDYNTAHGTAYKMLPESSFTVDNKGVILTGMKETFIKIKYHKKGLIPEEGTYLFGDYVLPLRITSVSKYGISPDAASKLYTVKFQPDPIDKKGWSVIDFNNCCTQDGGWYLNMGWGVESLIDNNPGTQWLCRWDVKEPLPYYFVFDMGKEYTLFRFGFANPVAPAAHVWAGTSKAGYVEASIDNENWVKLKDWTSPKIGEPNVNMDVPATQARYIRFVITDTYPTYDGLRVSLGEVYAWGM	failed
KLYGSIFTGASKFRCKDCSAAYDTLVELTVHMNETGHYRDDNHETDNNNPKRWSKPRKRSLLEMEGKEDAQKVLKCMYCGHSFESLQDLSVHMIKTKHYQKV	not failed
ENGSRKQLYRLDLKTLEISQIQTGEDVVQWFGVATDNGAVWYSGQSANNADRLYRLDGTKGKLVWDLSAEKLANIDFTPARDWNYTAPDGTVVEGWYYLPPQFDPSKKYPMLVYYYGGTSPINRTLEGHYSLAMYAAQGYVVYTLNPSGTTGYGQEYAARHVNAWGDRTADEIIGATKEFIRTHSFVNGKK	failed
MGHHHHHHSHMDNHNPMKDIEVTSSPDDSIGCLSFSPPTLPGNFLIAGSWANDVRCWEVQDSGQTIPKAQQMHTGPVLDVCWSDDGSKVFTASCDKTAKMWDLSSNQAIQIAQHDAPVKTIHWIKAPNYSCVMTGSWDKTLKFWDTRSSNPMMVLQLPERCYCADVIYPMAVVATAERGLIVYQLENQPSEFRRIESPLKHQHRCVAIFKDKQNKPTGFALGSIEGRVAIHYINPPNPAKDNFTFKCHRSNGTNTSAPQDIYAVNGIAFHPVHGTLATVGSDGRFSFWDKDARTKLKTSEQLDQPISACCFNHNGNIFAYASSYDWSKGHEFYNP	failed
MKLSAAGVEKIKPTDKRQEIPDSLCVGLYLIVQPTGKKGWQVRYRHGGVHRRMSLGAFPVLSLAGARERARQTLAAASAGTDPAAEVKAAKAPKLDGDRDKIKTLIGQFDKRHLSKLKSGAVVRRELERHVVSAWGERDVHQIGKRDVIDLLDGIADSGRVVTANRVRAYLAKFFGWCVERDILATSPAAGVKPAGKETSRARVLTDDEIRWFWTACEAEGFPWGPFGKVLLLTGQRLNEVAQMTDSEIRGDLWHLTADRTKNGRAHDVPLTGAVRAALDEVERVTDEEGRVRFIFTTTGRTPVSGFFKARAVLAEAMVGIAQKERGEPVEIPRWTFHDLRRTAATGMARLGIPVRVTEAVLNHVSGTGGGIVAVYQRHDYADEKRQALEAWARFVLSLVEGEADNVVRLQHG	failed
REEDPHEGKIWFHGKISKQEAYNLLMTVGQVCSFLVRPSDNTPGDYSLYFRTNENIQRFKICPTPNNQFMMGGRYYNSIGDIIDHYRKEQIVEGYYLKEPVPMQDQ	not failed
MDKLEAMQVYVCVVDTHSFIRAAEVLGVPRSTVSRVVKELESWLKIQLLQRTTRKLSVTAEGRRYYEECKRVLADIAAMESSFPGRAAQPKGRFKVGMPQSLARHCIIPTLPAFLRQYPELELILCSSDSVEDIILQGYDCVIRAGRIDDSTTLVARPLASFNWVIAASPTYIERYGSPENLDDLQKHYAVGYLNHRTGRTTDWFFTREGEDYAMRVQETLVVDDTDAYIQAGIQGLGLIRVASYLVAPYLHSGALVTCMDNHSYDLPLALVYPQNRFLPPAVRAFYHWCKTALSQPEPFC	failed
MDPKHKKLLRTQRLFLSEELLVDDLIIQYLYQEEILTESHLEEIQSESSSRNKTLKLLDILPSRGATAFHHFIKSLEKDFPWIRDKLLQLNEEEESPPPPFTVQCGVPDHILLTVPTTLHLNQLASRLGSEWKSVLLDLGLSCADLYRCCSDHPLAVQSQVLAGLVMWTQRNGRGATVQRLIQSLQAADVPPSVLQQVFK	failed
MSRVAGLSSKKSRWLLQSLLDQQRHSLGTGFESANILLSPKYHLKDKDLRKIHKAARDGDAARVQQLLLGKHCVNDKDKKKRTALHIACAYGHPKVVMALVEGKCEVNATDSEECTSLVKAVQCQEEECATILLENNADPNIVDAQGNSALHYAVYYKNTSLAAKLLDHEVNIEATNKDGFTPFLLAVSENKLKIAKFLLMKNASIHAADNQKRTALMHAVSHDSTNLVRFVLEQGVDLFVKDAFGLTAIDYAADFKYNSKDQQSQELENMEKKYTAAQDSLEYTAAQDSLEHTAAQDSLEHTAAQDGLEYTAAQDSLEHTAAQDSLEHTAAQDSLEHTAAQDSLEYTAAQDSLEYTAAQDSLEYTAAQDSLEHTAAQDSLEYTAAQDSLEHTAAQDSLECTAASNSSRSHALITHVHLSAEPDGGVTSVEEPRRLDDRGDDQPQEAVTAPRTREKEQDMCTVVTGKEDEDESSWDSETNPPSPWGAPEALCAAALDHGDIGSPLTRENGHPRARQSPSVDSEEQDGGSGLNIKEEKTRDHEEWSGDFLMDRTSKESEPAAGDLLQVKDSWSLNDTDPNKGRSGGDPIEESRNATDLNHCKAVYIPPSESANSEIWKGMSSAKARLDNASKGPTVTRF	failed
GSPDPEIFRQRFRQFGYQDSPGPREAVSQLRELCRLWLRPETHTKEQILELVVLEQFVAILPKELQTWVRDHHPENGEEAVTVLEDLESELDD	not failed
PMVLVVLDHDGNRLKKGSLEALTRARDLAQALGGKVAGVLLAEEKAPVEEARKYVEVLYTATLGPYTAEKWAAGVLKAAEASGAKAVVAPSSRQSRAYLGRVAYALRAGLLEDTLESRVEGGEVHATRYAYLNRVTQRVKAALPVVLTVKPNTTPLAEPLPGEAEAVALSVPEVPTVEVLERLQEEKKGVS	failed
MIRLNVFVRVNETNREKAIEAAKELTACSLKEEGCIAYDTFESSTRRDVFMICETWQNAEVLAAHEKTAHFAQYVGIIQELAEMKLEKFEF	not failed
